Reference: article PMC5877952 (Proceedings of the National Academy of Sciences of the …, 2018)

Target: T1, SAX-3–Flag (C. elegans, UniProt G5EBF1 24-1273)
T1 sequence (looked up): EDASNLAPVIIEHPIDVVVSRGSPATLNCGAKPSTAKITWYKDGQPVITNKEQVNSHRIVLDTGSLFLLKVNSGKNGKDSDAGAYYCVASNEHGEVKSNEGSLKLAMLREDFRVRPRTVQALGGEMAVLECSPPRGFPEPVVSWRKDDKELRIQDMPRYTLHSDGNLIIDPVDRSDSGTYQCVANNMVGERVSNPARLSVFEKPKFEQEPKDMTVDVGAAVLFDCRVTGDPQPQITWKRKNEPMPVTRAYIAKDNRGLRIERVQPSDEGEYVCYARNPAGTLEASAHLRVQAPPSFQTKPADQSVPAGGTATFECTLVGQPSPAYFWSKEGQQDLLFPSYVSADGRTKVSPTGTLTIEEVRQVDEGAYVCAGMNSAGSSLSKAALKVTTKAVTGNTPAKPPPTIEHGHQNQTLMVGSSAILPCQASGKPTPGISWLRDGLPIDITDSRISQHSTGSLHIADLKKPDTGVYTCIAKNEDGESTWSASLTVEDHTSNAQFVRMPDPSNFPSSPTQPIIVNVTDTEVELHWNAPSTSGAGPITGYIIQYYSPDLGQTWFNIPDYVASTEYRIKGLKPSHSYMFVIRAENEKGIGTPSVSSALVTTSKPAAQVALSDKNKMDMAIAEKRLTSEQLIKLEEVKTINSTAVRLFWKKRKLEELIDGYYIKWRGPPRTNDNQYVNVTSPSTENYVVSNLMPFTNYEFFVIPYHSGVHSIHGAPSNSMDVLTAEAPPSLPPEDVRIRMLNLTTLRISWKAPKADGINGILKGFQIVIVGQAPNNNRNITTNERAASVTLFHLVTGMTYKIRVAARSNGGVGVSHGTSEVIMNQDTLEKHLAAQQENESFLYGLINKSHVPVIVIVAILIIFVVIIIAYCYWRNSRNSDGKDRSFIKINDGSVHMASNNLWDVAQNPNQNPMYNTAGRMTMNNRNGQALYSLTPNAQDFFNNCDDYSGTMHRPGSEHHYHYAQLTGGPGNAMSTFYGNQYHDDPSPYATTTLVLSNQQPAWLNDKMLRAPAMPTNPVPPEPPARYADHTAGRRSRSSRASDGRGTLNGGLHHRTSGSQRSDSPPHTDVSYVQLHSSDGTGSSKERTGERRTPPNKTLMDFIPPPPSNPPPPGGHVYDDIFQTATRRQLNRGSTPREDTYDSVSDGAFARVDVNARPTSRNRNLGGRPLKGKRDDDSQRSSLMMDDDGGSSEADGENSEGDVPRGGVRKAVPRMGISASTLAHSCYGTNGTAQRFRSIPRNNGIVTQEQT
Test: pull-down

B1: CWN-2–GST (ligand, C. elegans, UniProt P34889 38-360, looked up)
chain: AGHNVKPVCELPGLSPGQAQVCELFKDHMPAVSIGAQNAIQECQRQFTGHRWNCSTHYSTGMLGPIHKMATREAAFTYAILSAGVTHEIGRRCKQGLLTSCGCSDETKPKNVPTDWSWGGCGDNVEYGYKFSRDFIDIREKEHDPKRNHDNGRSLMNRRNNEAGRKILKRHRKPKCKCHGVSGACNMKTCWMQLPSMEQVGKILRNKYDKAIRVQINDRGNLQLLADEATKERKTRALPTDLVFMDDSPDYCRFDRHSGTLGTEGRVCKRGSGGAEGCDSLCCGRGYNTYTQEVKSKCNCKFEWCCKVVCQTCNNVTQVDICK
binding result: binds
